Laboratory results from the Immune Epitope Database (IEDB).

Columns and labels:
HLA-A*02:02 = test: IEDB peptide-MHC binding, purified MHC/competitive/radioactivity; filed as Kd, often an IC50 or EC50 that approximates it; ≥ and ≤ were set here for values at or beyond the usual limits of such assays
HLA-A*02:03 = test: as above
HLA-A*02:06 = test: as above
HLA-A*30:01 = test: as above
HLA-A*03:01 [1] = test: IEDB peptide-MHC binding, purified MHC/direct/fluorescence; filed as Kd, often an IC50 or EC50 that approximates it; ≥ and ≤ were set here for values at or beyond the usual limits of such assays; details: source organism: Escherichia coli
HLA-A*31:01 = test: as above; details: source organism: Escherichia coli
HLA-A*02:01 [2] = test: IEDB peptide-MHC binding, purified MHC/competitive/fluorescence; ≥ and ≤ were set here for values at or beyond the usual limits of such assays
HLA-A*03:01 [3] = test: IEDB peptide-MHC binding, purified MHC/competitive/radioactivity; filed as Kd, often an IC50 or EC50 that approximates it; ≥ and ≤ were set here for values at or beyond the usual limits of such assays; details: source organism: Dengue virus 2 Jamaica/1409/1983
HLA-A*11:01 [4] = test: as above; details: source organism: Dengue virus 2 Jamaica/1409/1983
HLA-B*58:01 = test: IEDB peptide-MHC binding, purified MHC/direct/fluorescence; filed as Kd, often an IC50 or EC50 that approximates it; ≥ and ≤ were set here for values at or beyond the usual limits of such assays; details: source organism: Mammarenavirus lassaense
HLA-A*02:01 [5] = test: as above
HLA-A*11:01 [6] = test: as above; details: source organism: SARS-CoV1
HLA-A*69:01 = test: as above
HLA-A*01:01 = test: IEDB peptide-MHC binding, purified MHC/competitive/radioactivity; filed as Kd, often an IC50 or EC50 that approximates it; ≥ and ≤ were set here for values at or beyond the usual limits of such assays
HLA-A*30:02 = test: as above; details: source organism: Dengue virus 3 Martinique/1243/1999
[7] = source organism: Vaccinia virus WR
[8] = source organism: Dengue virus 4 Philippines/H241/1956
[9] = source organism: Zaire ebolavirus
[10] = source organism: Sudan ebolavirus
[11] = source organism: SARS coronavirus Tor2
[12] = source organism: Escherichia coli O157:H7
[13] = source organism: Dengue virus 1 Brazil/97-11/1997

Row | Sequence | Kd (HLA-A*02:02; [7]) | Kd (HLA-A*02:03; [7]) | Kd (HLA-A*02:06; [7]) | also measured
1 | RLRYNLCKYL | 261 nM | 0.304 nM | 15700 nM | –
2 | RNRVSTPQG | – | – | – | Kd (HLA-A*30:01; [8]): 132 nM
3 | RRNNRVFFR | – | – | – | Kd (HLA-A*03:01 [1]): ≥ 20000 nM; Kd (HLA-A*31:01): 17.7 nM
4 | RSQGPFDAV | – | – | – | IC50 (HLA-A*02:01 [2]; [9]): ≥ 163000 nM
5 | RSTPFNMLK | – | – | – | Kd (HLA-A*03:01 [3]): 8.05 nM; Kd (HLA-A*11:01 [4]): 14.1 nM; Kd (HLA-A*30:01; source organism: Dengue virus 2 Jamaica/1409/1983): 20.4 nM
6 | RTRAINKYS | – | – | – | Kd (HLA-A*30:01; [7]): 12.7 nM
7 | RVLSIPPTA | – | – | – | Kd (HLA-A*30:01; [8]): 118 nM
8 | SFFLWVIIL | – | – | – | IC50 (HLA-A*02:01 [2]; [9]): 14600 nM
9 | SILNNPVDT | ≥ 47100 nM | ≥ 30600 nM | 14200 nM | –
10 | SIVCIVAAV | 3.91 nM | 2.82 nM | 3.54 nM | –
11 | SLSNLDFRL | 1310 nM | 1760 nM | 1380 nM | –
12 | SQAKKPEVRI | 10700 nM | 2370 nM | 5860 nM | –
13 | SSTNQLRSV | – | – | – | IC50 (HLA-A*02:01 [2]; [9]): 48200 nM
14 | STAIELGAW | – | – | – | Kd (HLA-B*58:01): 13.3 nM
15 | SVDIETAIRA | 2830 nM | 7620 nM | 1030 nM | –
16 | TEAEKQLQQ | – | – | – | IC50 (HLA-A*02:01 [2]; [9]): ≥ 338000 nM
17 | TEQAFYTRV | – | – | – | IC50 (HLA-A*02:01 [2]; [7]): ≥ 98400 nM
18 | TGILGSLGL | – | – | – | IC50 (HLA-A*02:01 [2]; [10]): ≥ 92700 nM
19 | TGPCPGDYA | – | – | – | IC50 (HLA-A*02:01 [2]; [10]): 34900 nM
20 | TIAHINTLI | 21.4 nM | 20 nM | 571 nM | –
21 | TINVNSLAL | 1980 nM | 1540 nM | 2180 nM | –
22 | TLKDAMLQL | – | – | – | Kd (HLA-A*02:01 [5]; source organism: Mammarenavirus lassaense): 116 nM

Row | Sequence | Kd (HLA-A*02:02; [7]) | Kd (HLA-A*02:03; [7]) | Kd (HLA-A*02:06; [7]) | also measured
23 | TLLCVLAALV | – | – | – | Kd (HLA-A*02:02; [11]): 4.61 nM; Kd (HLA-A*02:03; [11]): 77.4 nM; Kd (HLA-A*02:06; [11]): 64.6 nM
24 | TLLQAAPTL | – | – | – | IC50 (HLA-A*02:01 [2]; source organism: Mycobacterium tuberculosis): 50 nM
25 | TLVPQEHYV | – | – | – | Kd (HLA-A*02:01 [5]; source organism: SARS-CoV1): 119 nM; Kd (HLA-A*11:01 [6]): ≥ 43200 nM; Kd (HLA-A*69:01; source organism: SARS-CoV1): 79.5 nM
26 | TNLEYKTLC | – | – | – | IC50 (HLA-A*02:01 [2]; source organism: Vaccinia virus): ≥ 773000 nM
27 | TTPENITTA | – | – | – | IC50 (HLA-A*02:01 [2]; [10]): 19000 nM
28 | TVGMSIVCIV | 528 nM | 468 nM | 200 nM | –
29 | VIIMAINVFT | 320 nM | 820 nM | 674 nM | –
30 | VIPFDDIVRT | ≥ 62700 nM | ≥ 50300 nM | 18200 nM | –
31 | VLFIHPLDA | – | – | – | Kd (HLA-A*02:01 [5]; [12]): 64.9 nM; Kd (HLA-A*69:01; [12]): ≥ 20000 nM
32 | VLPEEQDQNY | – | – | – | Kd (HLA-A*01:01; source organism: Dengue virus 3 Martinique/1243/1999): 11000 nM; Kd (HLA-A*30:02): 6870 nM
33 | VLTLATGPVL | – | – | – | Kd (HLA-A*30:01; [8]): 1500 nM
34 | VMDTLNGIMM | 7.64 nM | 5160 nM | 403 nM | –
35 | VVLTGGTGV | – | – | – | IC50 (HLA-A*02:01 [2]; source organism: Variola virus): 3800 nM
36 | WLRAKRKPAM | 4670 nM | ≥ 20100 nM | 11900 nM | –
37 | WTEQYKFQA | – | – | – | Kd (HLA-A*01:01; [13]): ≥ 20200 nM
38 | YIALCKVTV | 12.2 nM | 24 nM | 18.8 nM | –
39 | YSDRRWCFD | – | – | – | Kd (HLA-A*01:01; [13]): 1070 nM
40 | YTFAISYCRA | 325 nM | 37.6 nM | 37.4 nM | –
41 | YVGDTSMMVI | 408 nM | 220 nM | 324 nM | –
42 | YVSPTEMVDV | 63.3 nM | 49.8 nM | 5.16 nM | –
43 | YVVIVENDNV | 2330 nM | 11000 nM | 59.7 nM | –
